According to US20250027068A1 (published 2025):

How the values were obtained:
pooled human IgG = pooled human IgG (human); assay: cell-based or functional assay
[1] = target: pooled human IgG (human IgG1, 2, 3 and 4) (human); assay: cell-based or functional assay
Note: test concentration or dose not given here.

Binder	Enzyme Activity Endpoint Assay (purified): Fab′2 (pooled human IgG) [ng/µL]	Enzyme Activity Endpoint Assay (purified): Fc (pooled human IgG) [ng/µL]	Enzyme Activity Endpoint Assay (purified): IgG (pooled human IgG) [ng/µL]	Enzyme Activity Endpoint Assay (purified): scIgG (pooled human IgG) [ng/µL]	Enzyme Activity Endpoint Assay: Fab′2 [1] [ng/µL]	Enzyme Activity Endpoint Assay: Fc [1] [ng/µL]	Enzyme Activity Endpoint Assay: IgG [1] [ng/µL]	Enzyme Activity Endpoint Assay: scIgG [1] [ng/µL]
PRT-221 (enzyme) MEVVEVWPYGQNPNGKTEILSQTEDSESLQRLRDIEDFQAEKKMQNVVYTKWLDGVDVKDHDFRKIVDGNIAYYATPLLNGRGFYDINKDFNRDSDKCAAAVAANMFHYWLDINRDNVDRFLRQNPEKHGIIELPDGQLKLSDFLNTYESDHGYRDKSKLFDFISNNFNGPVWTDKLLDNYINGYAYNYKYGRTIEDPTKNTSKINFFKEVFNEKILTNNHSIRNQNEFSVLLSEALYTGKAIGLSYGPAGLRHSLGHIISVWGADLDADGNVVAIYVTDSDDKKLTIGDERVGLKRYKISTDDENRLRLTAYEETHNTGGQIRGLWTLDTGKQAWADYFDKTEQTGTDQAEQLEHHHHHH	117	439	653	461	–	–	–	–
PRT-223 (enzyme) MEVVEVWPYGQNPNGKTEILSQTEDSESLQRLRDIEDFQAEKKKENVVYTKWLDGVDVKDHDFRKIVDGNIAYYATPLLNGRGFYDINKDFNRDSDKCAAAVAANMFHYWLDINRDNVDRFLRQNPEKHGIIELPDGQLKLSDFLNTYESDHGYRDKSKLFDFISNNFNGPVWTDKLLDNYINGYAYNYKYGRTIEDPTKNTSKINFFKEVFNEKILTNNHSIRNQNEFSDLLSEALYTGKAIGLSYGPAGLRHSLGHIISVWGADLDADGNVVAIYVTDSDDKKLTIGDERVGLKRYKISTDDENRLRLTAYEETHNTGGQIRGLWTLDTGKQAWADYFDKTEQTGTDQAEQLEHHHHHH	189	391	375	316	–	–	–	–
PRT-225 (enzyme) MEVVEVWPYGQNPNGKTEILSQTEDSESLQRLRDIEDFQAEKKKENVVYTKWLDGVDVKDHDFRKIVDGNIEYYATPLLNGRGFYDINKDFNRDSDKCAAAVAANMFHYWLDINRDNVDRFLRQNPEKHGIIELPDGQLKLSDFLNTYESDHGYRDKSKLFDFISNNFNGPVWTDKLLDNYINGYAYNYKYGRTIEDPTKNTSKINFFKEVFNEKILTNNHSIRNQNEFSVLLSEALYTGKAIGLSYGPAGLRHSLGHIISVWGADLDADGNVVAIYVTDSDDKKLTIGDERVGLKRYKISTDDENRARLTAYEETDNTGGQIRGLWTLDTGKQAWADYFDKTEQTGTDQAEQLEHHHHHH	0	63	1500	0	–	–	–	–
PRT-224 (enzyme) MEVVEVWPYGQNPNGKTEILSQTEDSESLQRLRDIEDFQAEKKKQNVVYTKWLDGVDVKDHDFRKIVDGNIAYYATPLLNGRGFYDINKDFNRDSDKCAAAVAANMFHYWLDINRDNVDRFLRQNPEKHGIIELPDGQLKLSDFLNTYESDHGYRDKSKLFDFISNNFNGPVWTDKLLDNYINGYAYNYKYGRTIEDPTKNTSKINFFKEVFNEKILTNNHSIRNQNEFSVLLSEALYTGKAIGLSYGPAGLRHSLGHIISVWGADLDADGNVVAIYVTDSDDKKLTIGDERVGLKRYKISTDDEGRLRLTAYEETHNTGGQIRGLWTLDTGKQAWADYFDKTEQTGTDQAEQLEHHHHHH	217	382	344	314	–	–	–	–
PRT-226 (enzyme) MEVVEVWPYGQNPNGKTEILSQTEDSESLQRLRDIEDFQAEKKKQNVVYTKWLDGVDVDDHDFRKIVDGNTEYYATPLLNGRGFYDINKDFNRDSDKCAAAVAANMFHYWLDRNRDNVDRFLRQNPEKHGIIELPDGQLKLSDFLNTYESDHGYRDKSKLFDFISNNFNGPVWTNKLLDNYINGYGYNYKYGRTIEDPTKNTSKINFFKEVFNEKILTNNHSIRNQNEFSVLLSEALYTGKAIGLSYGPAGLRHSLGHIISVWGADLDADGNVVAIYVTDSDDKKLTIGDERVGLKRYKISTDDEGRARLTAYEETDNTGGQIRGLWTLDTGKQAWADYFDKTEQTGTDQAEQLEHHHHHH	0	0	1960	0	–	–	–	–
PRT-222 (enzyme) MEVVEVWPYGQNPNGKTEILSQTEDSESLQRLRDIEDFQAEKKMQNVVYTKWLDGVDVKDHDFRKIVDGNIAYYATPLLNGRGFYDINKDFNRDSDKCAAAVAANMFHYWLDINRDNVDRFLRQNPEKHGIIELPDGQLKLSDFLNTYESDHGYRDKSKLFDFISNNFNGPVWTDKLLDNYINGYAYNYKYGRTIEDPTKNTSKINFFKEVFNEKILTNNHSIRNQNEFSVLLSEALYTGKAIGLSYGPAGLRHSLGHIISVWGADLDADGNVVAIYVTDSDDKKLTIGDERVGLKRYKISTDDEGRLRLTAYEETHNTGGQIRGLWTLDTGKYAWADYFDKTEQTGTDQAEQLEHHHHHH	487	78	1550	21	–	–	–	–
PRT-280 (enzyme) MVTSVWTKGVTPPAKFTQGEDVFHAPYVANQGWYDITKTFNGKDDLLCGAATAGNMLHWWFDQNKEKIEAYLKKHPDKQKIMFGDQELLDVRKVINTKGDQTNSELFNYFRDKAFPNLSARRIGVMPDLVLDMFINGYYLNVYKTQTTDVNRTYQEKDRRGGIFDAVFTRGDQSKLLTSRHDFKEKNLKEISDLIKKELTEGKALGLSHTYANVGINHVINLWGADFDSNGNLKAIYVTDSDSNASIGMKKYFVGVNSSGKVAISAKEIKEDNIGAQVLGLFTLSTGQDSWNQTN	–	–	–	–	423	305	319	0
PRT-288 (enzyme) MVTSVWTKGVTPPAKFTQGEDVFHAPYDANQGWYDITKEFNGKDDLLCGAATAGNMLHWWFDQNKEKIEAYLKKHPDKQKIMFGDQELLDVRKVINTKGDQTNSELFNYFRDKAFPNLSARRIGVMPDLVLDMFINGYYLNVYKTQTTDVNRTYQEKDRRGGIFDAVFTRGDQSKLLTSRHDFKEKNLKEISDLIKKELTEGKALGLSHTYANVRIGHVINLWGADFDSNGNLKAIYVTDSDSNASIGMKKYGVGVNSAGKVAISAKEIKEDNIGAQVLGLFTLSTGQDSWNQTN	–	–	–	–	439	334	348	0
PRT-217 (enzyme) MEVVEVWPYGQNPNGKTEILSQTEDSESLQRLRDIEDFQAEKKKQNVVYTKWLDGVTVDDSDFRKIKDGNTEYYATPLLNGRGFYDINKDFNRDSDKCAAAVAANMFHYWLDRNRDNVDRFLKQNPEKHGIIELPDGQLKLSDFLNTYESDNNYRDKSKLFDFISKNFNGPVWTNKLLDNYINGYGYNYKYGRTIEDPTKNTSKINFFKKVFNEKILTNVHQIFNYNEFSTLLSEALYTGKAIGLSYGPGGLRHSLGHIISVWGADLDADGNVVAIYVTDSDDKKLTIGDERVGLKRYKISTDDEGRARLTAYTETDNTGGQVRGIYTLDTGKQAWADYFDKTEQTGTDQAEQLEHHHHHH	0	86	1580	41	–	–	–	–
PRT-219 (enzyme) MEVVEVWPYGQNPNGKTEILSQTEDSESLQRLRDIEDFQAEKKKQNVVYTKWLDGVTVDDSDFRKIKDGNTEYYATPLLNGRGFYDINKDFNRDSDKCAAAVAANMFHYWLDRNRDNVDRFLKQNPEKHGIIELPDGQLKLSDFLNTYESDNNYRDKSKLFDFISKNFNGPVWTNKLLDNYINGYGYNYKYGRTIEDPTKNTSKINFFKKVFNEKILTNVHQIFNYNEFSTLLSEALYTGKAIGLSYGPGGLRHSLGHIISVWGADLDADGNVVAIYVTDSDDKKLTIGDERVGLKRYKISTDDEGRARLTAYTETDNTGGQVRGIWTLDTGKQAWADYFDKTEQTGTDQAEQLEHHHHHH	104	407	886	443	–	–	–	–
PRT-218 (enzyme) MEVVEVWPYGQNPNGKTEILSQTEDSESLQRLRDIEDFQAEKKKQGVVYTKWLDGVNVDDHEFRKITDGNTEYYATPLLNGRGYYDINKDFNRDSDKCAAAVAANMFHYWLDRNRDNVDRFLRQNPDKHGIIELPDGQLKLSDFLNTYESDHDYRDKSKLFDFISNNFNGPVWTNKLLDNYINGYGYNYKYGRTIEDPTKNTSKINFFKEVFNGKLLTDNHSIRNKNEFSSKLSEALYTGKAIGLSYGPAGLRHSLGHIISVWGADLDEDGNVVAIYVTDSDDKKLTIGDERVGLKRYKVSYDDEGRARLTAYEETDNTGGEIRGLYTLDTGKQYWADYFDKTEQTGTDQAEQLEHHHHHH	0	39	1780	0	–	–	–	–
PRT-220 (enzyme) MEVVEVWPYGQNPNGKTEILSQTEDSESLQRLRDIEDFQAEKKKQGVVYTKWLDGVNVDDHEFRKITDGNTEYYATPLLNGRGYYDINKDFNRDSDKCAAAVAANMFHYWLDRNRDNVDRFLRQNPDKHGIIELPDGQLKLSDFLNTYESDHDYRDKSKLFDFISNNFNGPVWTNKLLDNYINGYGYNYKYGRTIEDPTKNTSKINFFKEVFNGKLLTDNHSIRNKNEFSSKLSEALYTGKAIGLSYGPAGLRHSLGHIISVWGADLDEDGNVVAIYVTDSDDKKLTIGDERVGLKRYKVSYDDEGRARLTAYEETDNTGGEIRGLWTLDTGKQYWADYFDKTEQTGTDQAEQLEHHHHHH	0	61	2320	0	–	–	–	–
PRT-216 (enzyme) MEVVEVWPYGQNPNGKTEILSQTEDSESLQRLRDIEDFQAEKKKENVVYTKWLDGVDVDDHDFRKIVDGNTEYYATPLLNGRGWYDINKDFNRDSDKCAAAVAANMFHYWLDQNRDNIDRFLRQSPEKHGIIELPDGQLKLSDFLNTYESDDGYRDKSKLFDFISNNFNGPVWTDKLLDNYINGYGYNYKYGRTIEDPTKNNSKINFFKKVFNGKILTDNHSIRNYNTFSDLLSEALYTGKAIGLSYGPAGLRHSLGHIISVWGADLDADGNVVAIYVTDSDDKKLTIGDERVGLKRYKISYDDENRARLTAYEENDNTGGQIRGLETLDTGKQAWADYFDKTEQTGTDQAEQLEHHHHHH	0	0	1660	0	–	–	–	–
